These results are taken from US11499162B2, “Plants having increased tolerance to herbicides” (BASF SE, priority 2016, dated 2022).

First the molecules themselves.
B1: P219GH249N: mutated TriA variant of SEQ ID NO: 2 (protein)
chain: MQTLSIQHGTLVTMDQYRRVLGDSWVHVQDGRIVALGVHAESVPPPADRVIDARGKVVLPGFINAHTHVNQILLRGGPSHGRQLYDWLFNVLYPGQKAMRPEDVAVAVRLYCAEAVRSGITTINDNADSAIYPGNIEAAMAVYGEVGVRVVYARMFFDRMDGRIQGYVDALKARSPQVELCSIMEETAVAKDRITALSDQYHGTAGGRISVWPAPAITGAVTVEGMRWAQAFARDRAVMWTLHMAESDNDERLHWMSPAEYMECYGLLDERLQVAHCVYFDRKDVRLLHRHNVKVASQVVSNAYLGSGVAPVPEMVERGMAVGIGTDDGNCNDSVNMIGDMKFMAHIHRAVHRDADVLTPEKILEMATIDGARSLGMDHEIGSIETGKRADLILLDLRHPQTTPHHHLAATIVFQAYGNEVDTVLIDGNVVMENRRLSFLPPERELAFLEEAQSRATAILQRANMVANPAWRSL
modifications: Pseudomonas
B2: E246S: mutated TriA variant of SEQ ID NO: 2 (protein)
chain: MQTLSIQHGTLVTMDQYRRVLGDSWVHVQDGRIVALGVHAESVPPPADRVIDARGKVVLPGFINAHTHVNQILLRGGPSHGRQLYDWLFNVLYPGQKAMRPEDVAVAVRLYCAEAVRSGITTINDNADSAIYPGNIEAAMAVYGEVGVRVVYARMFFDRMDGRIQGYVDALKARSPQVELCSIMEETAVAKDRITALSDQYHGTAGGRISVWPAPAITPAVTVEGMRWAQAFARDRAVMWTLHMASSDHDERLHWMSPAEYMECYGLLDERLQVAHCVYFDRKDVRLLHRHNVKVASQVVSNAYLGSGVAPVPEMVERGMAVGIGTDDGNCNDSVNMIGDMKFMAHIHRAVHRDADVLTPEKILEMATIDGARSLGMDHEIGSIETGKRADLILLDLRHPQTTPHHHLAATIVFQAYGNEVDTVLIDGNVVMENRRLSFLPPERELAFLEEAQSRATAILQRANMVANPAWRSL
modifications: Pseudomonas
B3: E246Q: mutated TriA variant of SEQ ID NO: 2 (protein)
chain: MQTLSIQHGTLVTMDQYRRVLGDSWVHVQDGRIVALGVHAESVPPPADRVIDARGKVVLPGFINAHTHVNQILLRGGPSHGRQLYDWLFNVLYPGQKAMRPEDVAVAVRLYCAEAVRSGITTINDNADSAIYPGNIEAAMAVYGEVGVRVVYARMFFDRMDGRIQGYVDALKARSPQVELCSIMEETAVAKDRITALSDQYHGTAGGRISVWPAPAITPAVTVEGMRWAQAFARDRAVMWTLHMAQSDHDERLHWMSPAEYMECYGLLDERLQVAHCVYFDRKDVRLLHRHNVKVASQVVSNAYLGSGVAPVPEMVERGMAVGIGTDDGNCNDSVNMIGDMKFMAHIHRAVHRDADVLTPEKILEMATIDGARSLGMDHEIGSIETGKRADLILLDLRHPQTTPHHHLAATIVFQAYGNEVDTVLIDGNVVMENRRLSFLPPERELAFLEEAQSRATAILQRANMVANPAWRSL
modifications: Pseudomonas
B4: A220T: mutated TriA variant of SEQ ID NO: 2 (protein)
chain: MQTLSIQHGTLVTMDQYRRVLGDSWVHVQDGRIVALGVHAESVPPPADRVIDARGKVVLPGFINAHTHVNQILLRGGPSHGRQLYDWLFNVLYPGQKAMRPEDVAVAVRLYCAEAVRSGITTINDNADSAIYPGNIEAAMAVYGEVGVRVVYARMFFDRMDGRIQGYVDALKARSPQVELCSIMEETAVAKDRITALSDQYHGTAGGRISVWPAPAITPTVTVEGMRWAQAFARDRAVMWTLHMAESDHDERLHWMSPAEYMECYGLLDERLQVAHCVYFDRKDVRLLHRHNVKVASQVVSNAYLGSGVAPVPEMVERGMAVGIGTDDGNCNDSVNMIGDMKFMAHIHRAVHRDADVLTPEKILEMATIDGARSLGMDHEIGSIETGKRADLILLDLRHPQTTPHHHLAATIVFQAYGNEVDTVLIDGNVVMENRRLSFLPPERELAFLEEAQSRATAILQRANMVANPAWRSL
modifications: Pseudomonas
B5: E246T: mutated TriA variant of SEQ ID NO: 2 (protein)
chain: MQTLSIQHGTLVTMDQYRRVLGDSWVHVQDGRIVALGVHAESVPPPADRVIDARGKVVLPGFINAHTHVNQILLRGGPSHGRQLYDWLFNVLYPGQKAMRPEDVAVAVRLYCAEAVRSGITTINDNADSAIYPGNIEAAMAVYGEVGVRVVYARMFFDRMDGRIQGYVDALKARSPQVELCSIMEETAVAKDRITALSDQYHGTAGGRISVWPAPAITPAVTVEGMRWAQAFARDRAVMWTLHMATSDHDERLHWMSPAEYMECYGLLDERLQVAHCVYFDRKDVRLLHRHNVKVASQVVSNAYLGSGVAPVPEMVERGMAVGIGTDDGNCNDSVNMIGDMKFMAHIHRAVHRDADVLTPEKILEMATIDGARSLGMDHEIGSIETGKRADLILLDLRHPQTTPHHHLAATIVFQAYGNEVDTVLIDGNVVMENRRLSFLPPERELAFLEEAQSRATAILQRANMVANPAWRSL
modifications: Pseudomonas
B6: I217VP219GH249N: mutated TriA variant of SEQ ID NO: 2 (protein)
chain: MQTLSIQHGTLVTMDQYRRVLGDSWVHVQDGRIVALGVHAESVPPPADRVIDARGKVVLPGFINAHTHVNQILLRGGPSHGRQLYDWLFNVLYPGQKAMRPEDVAVAVRLYCAEAVRSGITTINDNADSAIYPGNIEAAMAVYGEVGVRVVYARMFFDRMDGRIQGYVDALKARSPQVELCSIMEETAVAKDRITALSDQYHGTAGGRISVWPAPAVTGAVTVEGMRWAQAFARDRAVMWTLHMAESDNDERLHWMSPAEYMECYGLLDERLQVAHCVYFDRKDVRLLHRHNVKVASQVVSNAYLGSGVAPVPEMVERGMAVGIGTDDGNCNDSVNMIGDMKFMAHIHRAVHRDADVLTPEKILEMATIDGARSLGMDHEIGSIETGKRADLILLDLRHPQTTPHHHLAATIVFQAYGNEVDTVLIDGNVVMENRRLSFLPPERELAFLEEAQSRATAILQRANMVANPAWRSL
modifications: Pseudomonas
B7: A220G: mutated TriA variant of SEQ ID NO: 2 (protein)
chain: MQTLSIQHGTLVTMDQYRRVLGDSWVHVQDGRIVALGVHAESVPPPADRVIDARGKVVLPGFINAHTHVNQILLRGGPSHGRQLYDWLFNVLYPGQKAMRPEDVAVAVRLYCAEAVRSGITTINDNADSAIYPGNIEAAMAVYGEVGVRVVYARMFFDRMDGRIQGYVDALKARSPQVELCSIMEETAVAKDRITALSDQYHGTAGGRISVWPAPAITPGVTVEGMRWAQAFARDRAVMWTLHMAESDHDERLHWMSPAEYMECYGLLDERLQVAHCVYFDRKDVRLLHRHNVKVASQVVSNAYLGSGVAPVPEMVERGMAVGIGTDDGNCNDSVNMIGDMKFMAHIHRAVHRDADVLTPEKILEMATIDGARSLGMDHEIGSIETGKRADLILLDLRHPQTTPHHHLAATIVFQAYGNEVDTVLIDGNVVMENRRLSFLPPERELAFLEEAQSRATAILQRANMVANPAWRSL
modifications: Pseudomonas
B8: A220S: mutated TriA variant of SEQ ID NO: 2 (protein)
chain: MQTLSIQHGTLVTMDQYRRVLGDSWVHVQDGRIVALGVHAESVPPPADRVIDARGKVVLPGFINAHTHVNQILLRGGPSHGRQLYDWLFNVLYPGQKAMRPEDVAVAVRLYCAEAVRSGITTINDNADSAIYPGNIEAAMAVYGEVGVRVVYARMFFDRMDGRIQGYVDALKARSPQVELCSIMEETAVAKDRITALSDQYHGTAGGRISVWPAPAITPSVTVEGMRWAQAFARDRAVMWTLHMAESDHDERLHWMSPAEYMECYGLLDERLQVAHCVYFDRKDVRLLHRHNVKVASQVVSNAYLGSGVAPVPEMVERGMAVGIGTDDGNCNDSVNMIGDMKFMAHIHRAVHRDADVLTPEKILEMATIDGARSLGMDHEIGSIETGKRADLILLDLRHPQTTPHHHLAATIVFQAYGNEVDTVLIDGNVVMENRRLSFLPPERELAFLEEAQSRATAILQRANMVANPAWRSL
modifications: Pseudomonas
B9: F157AA220G: mutated TriA variant of SEQ ID NO: 2 (protein)
chain: MQTLSIQHGTLVTMDQYRRVLGDSWVHVQDGRIVALGVHAESVPPPADRVIDARGKVVLPGFINAHTHVNQILLRGGPSHGRQLYDWLFNVLYPGQKAMRPEDVAVAVRLYCAEAVRSGITTINDNADSAIYPGNIEAAMAVYGEVGVRVVYARMFADRMDGRIQGYVDALKARSPQVELCSIMEETAVAKDRITALSDQYHGTAGGRISVWPAPAITPGVTVEGMRWAQAFARDRAVMWTLHMAESDHDERLHWMSPAEYMECYGLLDERLQVAHCVYFDRKDVRLLHRHNVKVASQVVSNAYLGSGVAPVPEMVERGMAVGIGTDDGNCNDSVNMIGDMKFMAHIHRAVHRDADVLTPEKILEMATIDGARSLGMDHEIGSIETGKRADLILLDLRHPQTTPHHHLAATIVFQAYGNEVDTVLIDGNVVMENRRLSFLPPERELAFLEEAQSRATAILQRANMVANPAWRSL
modifications: Pseudomonas
B10: N70C: mutated TriA variant of SEQ ID NO: 2 (protein)
chain: MQTLSIQHGTLVTMDQYRRVLGDSWVHVQDGRIVALGVHAESVPPPADRVIDARGKVVLPGFINAHTHVCQILLRGGPSHGRQLYDWLFNVLYPGQKAMRPEDVAVAVRLYCAEAVRSGITTINDNADSAIYPGNIEAAMAVYGEVGVRVVYARMFFDRMDGRIQGYVDALKARSPQVELCSIMEETAVAKDRITALSDQYHGTAGGRISVWPAPAITPAVTVEGMRWAQAFARDRAVMWTLHMAESDHDERLHWMSPAEYMECYGLLDERLQVAHCVYFDRKDVRLLHRHNVKVASQVVSNAYLGSGVAPVPEMVERGMAVGIGTDDGNCNDSVNMIGDMKFMAHIHRAVHRDADVLTPEKILEMATIDGARSLGMDHEIGSIETGKRADLILLDLRHPQTTPHHHLAATIVFQAYGNEVDTVLIDGNVVMENRRLSFLPPERELAFLEEAQSRATAILQRANMVANPAWRSL
modifications: Pseudomonas

The format of this data set is biochemical. The following applies: pH 7.2. The essentials: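 E. coli resting cells expressing His-tagged TriA incubated with azines, melamine or atrazine. Enzyme in 25 mM sodium phosphate pH 7.2 at 30 °C, substrate 1–10 nM. Loss of parent and formation of OH-metabolite followed by UPLC-HR-MS; % degradation relative to empty-vector cells.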
B1: the “Degradation in % of 6-cyclopentyl-N4-(2,3,4,5,6-pentafluorophenyl)-1,3,5-triazine-2,4-diamine” value was found to be 0% and the “Degradation in % of Melamine” value was determined as 2%.
In the same order, the values of B2 are 1% and 0%.
As to B3, the “Degradation in % of 6-cyclopentyl-N4-(2,3,4,5,6-pentafluorophenyl)-1,3,5-triazine-2,4-diamine” value worked out at 0% and the “Degradation in % of Melamine” value came out at 4%.
In the same order, the values of B4 are 1% and 6%.
In the same order, the values of B5 are 3% and 0%.
For B6, in that order: 0% and 8%.
As for B7, the “Degradation in % of 6-cyclopentyl-N4-(2,3,4,5,6-pentafluorophenyl)-1,3,5-triazine-2,4-diamine” value worked out at 0% and the “Degradation in % of Melamine” value stood at 0%.
On to B8, for which the “Degradation in % of 6-cyclopentyl-N4-(2,3,4,5,6-pentafluorophenyl)-1,3,5-triazine-2,4-diamine” value came out at 3% and the “Degradation in % of Melamine” value was 0%.
Consider B9, for which the “Degradation in % of 6-cyclopentyl-N4-(2,3,4,5,6-pentafluorophenyl)-1,3,5-triazine-2,4-diamine” value stood at 0% and the “Degradation in % of Melamine” value turned out to be 0%.
As for B10, the “Degradation in % of 6-cyclopentyl-N4-(2,3,4,5,6-pentafluorophenyl)-1,3,5-triazine-2,4-diamine” value was determined as 0% and the “Degradation in % of Melamine” value worked out at 0%.
